# According to paper PMC12204516, “Structural basis for higher-order DNA binding by a bacterial transcriptional regulator” (PLOS Genetics, 2025):
# Values joined by “and” are separate entries in the source; they are usually repeats but may differ in a detail not shown here. Equal entries are not always repeated.
# T1: Xre^Pp antitoxin with a N-terminal His6-tag (Xre_(NHis6)), of the Xre_(NHis6)-RES^Pp complex (Pseudomonas putida KT2440, UniProt Q88K58 11-159)
# T1 construct: also called Xre_(His6); source: E. coli BL21(DE3), pETDuet::xre_(NHis6)-res^Pp, purified with RES (HisTrap FF, Source 15Q, Superdex 200 Increase); not shown: His6, N-terminal, kept
# T1 sequence: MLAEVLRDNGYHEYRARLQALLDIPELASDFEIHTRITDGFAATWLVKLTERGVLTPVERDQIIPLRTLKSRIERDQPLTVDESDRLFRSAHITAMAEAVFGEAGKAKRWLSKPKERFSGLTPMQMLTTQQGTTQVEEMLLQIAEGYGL
# B1: RES^Pp toxin with N-terminal His6-tag (RES^Pp_(NHis6)), of the Xre-RES^Pp_(NHis6) complex (natural protein, Pseudomonas putida KT2440, UniProt Q88K57 1-145, looked up)
# chain: MILWRISAYADLSGTGGLRVSGRWHQAGRPVVYAATSPPGAMLEVLVHLEIDPEDFPTTMRLLRIELPDTVSQAQLPALQPGWSAQPELTRTLGNRFLDDCSALLLPVPSAIMPSTTNYLFNPRHPQAQSAKIQVEDFTPDSRLF
# notes: RES-domain NADase toxin encoded by res^Pp of the xre-res locus, Pseudomonas putida KT2440; residues 1-145 built in PDB 9R35; the 13 N-terminal residues from the tag are not seen in the model; also called RES_(His6); RES^Pp_(His6); not shown: His6, N-terminal, kept
# Columns and labels:
# [1] = biological target: B1; assay: SEC-MALS; Superose 6 Increase 10/300, 20-40 ug per sample, 20 mM HEPES pH 7.5, 150 mM KCl, 5 mM MgCl2, 3 mM BME; settings: both partners purified
# [2] = biological target: B1; assay: mass photometry; settings: both partners purified
# [3] = biological target: the molecule itself; assay: mass photometry
# [4] = biological target: T1, Xre^Pp antitoxin with a N-terminal …; assay: SEC; settings: both partners purified
# [5] = biological target: the molecule itself; assay: SEC-MALS; Superose 6 Increase 10/300, 20-40 ug per sample, 20 mM HEPES pH 7.5, 150 mM KCl, 5 mM MgCl2, 3 mM BME
binder,measurement,setting,value
"Xre^Pp antitoxin, untagged, co-expressed and co-purified with RES^Pp_(NHis6) (Xre-RES^Pp_(NHis6) complex) (natural protein, Pseudomonas putida KT2440, UniProt Q88K58 11-159, looked up, Xre antitoxin (N-terminal HTH domain, C-terminal DUF2384) encoded by xre^Pp of the xre-res locus, Pseudomonas putida KT2440; residues 1-149 built in PDB 9R35 (complete in chain B and others); also called Xre antitoxin) MLAEVLRDNGYHEYRARLQALLDIPELASDFEIHTRITDGFAATWLVKLTERGVLTPVERDQIIPLRTLKSRIERDQPLTVDESDRLFRSAHITAMAEAVFGEAGKAKRWLSKPKERFSGLTPMQMLTTQQGTTQVEEMLLQIAEGYGL",stoichiometry N,[1],2 Xre per RES
same,stoichiometry N,[2],~2 Xre per RES and ~1.5 Xre per RES and ~1 Xre per RES
"RES^Pp toxin, untagged, co-expressed and co-purified with Xre_(NHis6) (Xre_(NHis6)-RES^Pp complex) (natural protein, Pseudomonas putida KT2440, also called RES toxin) MILWRISAYADLSGTGGLRVSGRWHQAGRPVVYAATSPPGAMLEVLVHLEIDPEDFPTTMRLLRIELPDTVSQAQLPALQPGWSAQPELTRTLGNRFLDDCSALLLPVPSAIMPSTTNYLFNPRHPQAQSAKIQVEDFTPDSRLF",binding result,[3],binds
same,stoichiometry N,[4],1 RES per Xre
B1,binding result,[5],binds
